Values joined by “and” are separate entries in the source; they are usually repeats but may differ in a detail not shown here. Identical values can stand only once.
Molecular target: TRIM5α from African green monkey, L81F (African green monkey)
Assay: cryo-EM structure

**Q.** With “TRIM5α from African green monkey, L81F (natural protein)” as the substance, how does the stoichiometry N read?
**A.** Its stoichiometry N is 3 and 2.
